T1: gD epitope-tagged cynomolgus monkey mesothelin expressed on cells (construct #383) (cynomolgus monkey)
T1 construct: also called cyno mesothelin
T1 chain: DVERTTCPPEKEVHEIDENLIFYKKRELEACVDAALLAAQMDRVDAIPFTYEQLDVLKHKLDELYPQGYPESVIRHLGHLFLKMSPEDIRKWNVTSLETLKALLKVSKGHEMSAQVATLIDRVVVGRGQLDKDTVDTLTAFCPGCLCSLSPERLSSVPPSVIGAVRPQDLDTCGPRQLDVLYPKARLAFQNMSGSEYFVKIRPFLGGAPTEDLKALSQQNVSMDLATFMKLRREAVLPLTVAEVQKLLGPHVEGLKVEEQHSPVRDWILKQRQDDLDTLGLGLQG

T2: gD epitope-tagged mouse mesothelin expressed on cells (construct #385) (mouse, UniProt Q61468 298-582)
T2 sequence: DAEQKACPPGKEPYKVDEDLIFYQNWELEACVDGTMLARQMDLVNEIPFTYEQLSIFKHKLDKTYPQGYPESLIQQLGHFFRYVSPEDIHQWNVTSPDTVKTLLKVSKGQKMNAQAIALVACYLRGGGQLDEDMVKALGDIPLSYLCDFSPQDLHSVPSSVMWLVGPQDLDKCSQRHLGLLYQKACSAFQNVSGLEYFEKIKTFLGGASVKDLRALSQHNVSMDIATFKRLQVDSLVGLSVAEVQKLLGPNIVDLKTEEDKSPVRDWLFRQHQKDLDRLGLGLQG

T3: gD epitope-tagged rat mesothelin expressed on cells (rat, UniProt Q9ERA7 298-582)
T3 sequence: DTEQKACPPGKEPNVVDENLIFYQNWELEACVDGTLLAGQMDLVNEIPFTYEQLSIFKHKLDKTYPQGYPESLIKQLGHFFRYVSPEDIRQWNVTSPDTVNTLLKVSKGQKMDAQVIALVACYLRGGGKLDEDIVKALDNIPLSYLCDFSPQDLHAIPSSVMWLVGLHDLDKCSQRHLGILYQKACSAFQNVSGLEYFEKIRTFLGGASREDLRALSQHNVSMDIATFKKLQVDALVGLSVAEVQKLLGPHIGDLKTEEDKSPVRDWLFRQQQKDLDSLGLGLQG

B1: humanized monoclonal antibody 7D9.v3 (antibody, V domains shown)
VH: EVQLVESGGGLVQPGGSLRLSCAASGYTFTTYWMHWVRQAPGKGLEWVGYIRPSTGYTEYNQKFKDRFTISADTSKNTAYLQMNSLRAEDTAVYYCARSRWLLDYWGQGTLVTVS
VL: DIQMTQSPSSLSASVGDRVTITCKSSQSVLYSSNQKNYLAWFQQKPGKAPKLLIYWASTRESGVPSRFSGSGSGTDFTLTISSLQPEDFATYFCHQYLSSYTFGQGTKVEIKR
notes: also called h7D9.v3; hu7D9.v3
B2: mouse monoclonal antibody 7D9 (antibody, V domains shown)
VH: QVQLQQSGAELAKPGASVKMSCKASGYTFTTYWMHWVKQRPGQGLEWIGYIRPSTGYTEYNQKFKDKATLTADKSSSTAYMQLSSLTSEDSTVYYCARSRWLLDYWGQGTSLTVS
VL: DIMMTQSPSSLAVSAGEKVTMSCKSSQSVLYSSNQKNYLAWFQQKPGQSPKLLIYWASTRESGVPDRFTGSGSGTDFTLTISSVQAEDLAVYFCHQYLSSYTFGGGTKVEIK
notes: also called m7D9; mu7D9

Tests used:
[1] = molecular target: T4, human mesothelin on cells (endogenous on tumour cell lines and tissue, or stably expressed on A431 or HT1080 … (human, UniProt Q13421 296-580)); assay: Scatchard analysis (125I-labelled antibody) on AsPC1 cells, endogenous mesothelin
T4 construct: also called endogenous mesothelin; endogenous human mesothelin
T4 sequence (Q13421 other isoform, or with tags, fused parts or gaps): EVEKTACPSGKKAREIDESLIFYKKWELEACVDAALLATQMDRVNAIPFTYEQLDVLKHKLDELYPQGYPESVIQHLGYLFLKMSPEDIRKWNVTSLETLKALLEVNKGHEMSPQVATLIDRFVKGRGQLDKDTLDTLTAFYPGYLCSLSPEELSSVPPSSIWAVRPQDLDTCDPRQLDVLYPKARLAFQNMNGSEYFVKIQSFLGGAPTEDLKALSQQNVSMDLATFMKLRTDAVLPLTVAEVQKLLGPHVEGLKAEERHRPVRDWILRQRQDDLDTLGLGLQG
Procedure: (§1) The data was analyzed with non-linear regression curve fitting in the New Ligand program (Genentech, Inc., South San Francisco, Calif.) to estimate Kd values (Munson et al., Anal. Biochem., 107 220-239 (1980)).

[2] = molecular target: T5, E. coli derived recombinant human mesothelin (human, UniProt Q13421 296-580); assay: Biacore-2000, IgG over immobilised E. coli derived human mesothelin, 1:1 fit
T5 construct: not shown: N-terminal unizyme His (HQ)-tag
T5 sequence (Q13421 other isoform, or with tags, fused parts or gaps): as above
Procedure: 7D9 variants were expressed as IgG by CHO transient transfection. IgG was purified with protein G affinity chromatography. The affinity of each 7D9 IgG variant for human mesothelin was determined by surface plasmon resonance using a BIACORE™-2000. BIACORE™ research grade CM5 chips were immobilized with approximately 110 RU of E. coli derived recombinant human mesothelin using the amine coupling kit from BIACORE™. […] Each sample was analyzed with 5-minute association and 3.5-minute dissociation. After each injection the chip was regenerated using 10 mM Glycine pH 1.7. Binding response was corrected by subtracting the RU from a flow cell with an irrelevant IgG immobilized at similar density. A 1:1 Languir model of simultaneous fitting of kₒₙ and koff was used for kinetics analysis.

[3] = molecular target: T6, gD epitope-tagged human mesothelin expressed on cells (construct #387) (human, UniProt Q13421 296-580); assay: Scatchard, 125I-labelled antibody on stably transfected 293 cells
T6 construct: also called gD-human mesothelin; gD-tagged human mesothelin
T6 sequence (Q13421 other isoform, or with tags, fused parts or gaps): as above
Procedure: as §1

[4] = molecular target: T4, human mesothelin on cells (endogenous …); assay: Scatchard; range for endogenous mesothelin in four pancreatic and two ovarian cell lines
Procedure: as §1

[5] = molecular target: T6, gD epitope-tagged human mesothelin …; assay: Scatchard, 125I-labelled antibody on stably transfected BJAB cells
Procedure: as §1

[6] = molecular target: T1, gD epitope-tagged cynomolgus monkey …; assay: immunoprecipitation from BJAB cells stably expressing gD-tagged cyno mesothelin, Western blot with murine anti-gD
[7] = molecular target: T2, gD epitope-tagged mouse mesothelin …; assay: FACS on stably transfected 293 cells
Procedure: Monoclonal antibodies were tested to determine if they cross-react with mesothelin from species other than human. […] Shaded residues are identical between at least two species. Unshaded residues differ between at least two of the four species. […] Anti-gD staining verified that mouse mesothelin was indeed expressed.

[8] = molecular target: T7, C-terminally his-tagged human mesothelin expressed in CHO cells (Mono S fractions A11, A12, B1, B5) (human, UniProt Q13421 296-580); assay: SPR: each Mono S fraction (A11, A12, B1, B5) flowed over a chip with prebound h7D9.v3
T7 construct: also called glycosylated mesothelin; not shown: C-terminal his tag
T7 sequence (Q13421 other isoform, or with tags, fused parts or gaps limits assumed): as the sequence (Q13421 other isoform, or with tags, fused parts or gaps) above
From the text: To determine whether h7D9.v3 binds to glycosylated mesothelin, C-terminally his-tagged human mesothelin was expressed in CHO cells, purified and further separated according to charge on a Mono S column into fractions with high (fraction A11), medium (A12), low (B1) and low-to-none (B5) glycosylation of mesothelin, as shown by Coomassie Blue staining on an SDS-PAGE gel. (FIG. 20, top left). […] (FIG. 20, right).

[9] = molecular target: T3, gD epitope-tagged rat mesothelin …; assay: immunoprecipitation from BJAB cells stably expressing gD-tagged rat mesothelin, Western blot with murine anti-gD
[10] = molecular target: T4, human mesothelin on cells (endogenous …); assay: Scatchard analysis (125I-labelled antibody) on HPAC cells, endogenous mesothelin
Procedure: as §1

[11] = molecular target: T4, human mesothelin on cells (endogenous …); assay: Scatchard analysis (125I-labelled antibody) on OvCar3 cells, endogenous mesothelin
Procedure: as §1

[12] = molecular target: T4, human mesothelin on cells (endogenous …); assay: Scatchard analysis (125I-labelled antibody) on Capan2 cells, endogenous mesothelin
Procedure: as §1

[13] = molecular target: T4, human mesothelin on cells (endogenous …); assay: Scatchard analysis (125I-labelled antibody) on HPAF-II cells, endogenous mesothelin
Procedure: as §1

[14] = molecular target: T6, gD epitope-tagged human mesothelin …; assay: Scatchard, 125I-labelled antibody on stably transfected HT1080 cells
Procedure: as §1

[15] = molecular target: T4, human mesothelin on cells (endogenous …); assay: Scatchard analysis (125I-labelled antibody) on OvCar3x2.1 cells, endogenous mesothelin
Procedure: as §1

[16] = molecular target: T5, E. coli derived recombinant human …; assay: Biacore (column 'Kd (nM) Biacore'); antigen preparation not given, the filing's Biacore assays use E. coli derived human mesothelin
[17] = molecular target: T2, gD epitope-tagged mouse mesothelin …; assay: FACS on transiently transfected 293 cells
[18] = molecular target: T1, gD epitope-tagged cynomolgus monkey …; assay: FACS on transiently transfected 293 cells

| Binder | Kd [1] [nM] | Kd [2] [nM] | Kd [3] [nM] | Kd [4] [nM] | Kd [5] [nM] | binding result [6] | binding result [7] | Kd [8] [nM] | binding result [9] | Kd [10] [nM] | Kd [11] [nM] | Kd [12] [nM] | Kd [13] [nM] | Kd [14] [nM] | Kd [15] [nM] | Kd [16] [nM] | binding result [17] | binding result [18] |
| --- | --- | --- | --- | --- | --- | --- | --- | --- | --- | --- | --- | --- | --- | --- | --- | --- | --- | --- |
| B1 | 0.58 | 1.9 | 0.2 | 0.41 to 1 | 0.25 | no binding | no binding (tested: 10 µg/ml) | 1.5 | no binding | 1 | 0.53 | 0.63 | 0.41 | 0.97 | 0.56 |  |  |  |
| B2 |  |  |  |  |  |  |  |  |  |  |  |  |  |  |  | 0.23 | no binding (tested: 0.02 µg/ml) | no binding (tested: 0.02 µg/ml) |

From patent US20170281792A1 (Genentech, published 2017)
